Laboratory results as given in the RNAGym collection of RNA variant scans (doi:10.1073/pnas.2313332121).

B1: TPR t1 (parent)
chain: GACCAAUCUGCCCUCAGAGCUCGAGAACAUCUUCGGAUGCAGAGGAGGCAGGCUUCGGUGGCGCGAUAGCGCCAACGUCCUCAACCUCCAAUGCAUCCCACCACAUGAUGAUGCCUGAAGAGCCUUGGUUUUUUG

Variants of: B1
Experiment: polymerase ribozyme fitness, log enrichment relative to wild type (log ratio); higher = more active; in vitro selection for triplet polymerase activity
Method in brief: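 Both subunits of a heterodimeric triplet polymerase ribozyme were given their own mutant library, built by PCR and transcribed. Each library was annealed with a biotinylated primer, the partner subunit and triplets, incubated frozen at −7 °C, and its extended constructs gel-excised, captured on streptavidin beads and amplified by RT-PCR, all in one round done in triplicate. Fitness is the logarithm of genotype enrichment relative to wild-type enrichment, with replicates averaged by inverse-variance weighting. That logarithm is base 2, and Illumina-sequenced genotypes needed ≥10 input reads and ≥1 read per output.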

Going from GACCAAUAUGCCCUCAGAGCUUGAGAACAUCUUCGGAUGCAGAGGAGGCAGGCUUCGGUGGCGCGAUAGCGCCAACGUCCUCAACCUCCAAUGCAUCCCACCACAUGAUGAUGCCUGAAGAGCCUUGGGUUUUUG [C8A C22U U129G] to GACCAAUAUGCCCUCAGAGCUCGAGAACAUCUUGGGAUGCAGAGGAGGCAGGCUUCGGUGGCGCGAUAGCGCCAACGUCCUCAACCUCCAAUGCAUCCCACCACAUGAUGAUGCCUCAAGAGCCUUGGUUUUUUG [C8A C34G G117C], the “polymerase ribozyme fitness (log ratio)” value falls from -4.85 to -6.88.

Compared with GACCAAUAUGCCCUAAGAGCUCGAGAACAUCUUCGGAUGCCGAGGAGGAAGGCUUCGUUGGCUCGAUAGCGCCAACGUCCUCAACCUCCAAUGCAUCCCACCACAUGAUGAUGCCUGAAGAGCCUUGGUUUUUUG [C8A C15A A41C C49A G58U G63U], GACCAAUAUGCCCUGAGAGCUCGAGAACUUCUUCGGAUGCAGAGGAGGCAGGCUUCGGUGGCGCGAUAGCGCCAACGUCCUCAACCUCCAAUGCAUCCCACCACAUGAUGAUGCCUGAAGAGCCUUGGUUUUUUG [C8A C15G A29U] is higher in “polymerase ribozyme fitness (log ratio)” value: -3.45 for the first, -2.66 for the second.

Going from GACCAAUAUGCCCUCAGAGAUCGAGAACAUCUUCGGAUGCAGAGGAGGCAGGCUUCGGUGGCGCGAUAGCUCCAACGUCCUCAACCUCCAAUGCAUCCCACCACAUGAUGAUGCCUGAAGAGCCUUGGUUUUUUG [C8A C20A G71U] to GACCAAUAUGCCCUCAGAGCUCGAGAACAUCUUAGGUUGCAGAGGAGGCAGGCUUCGGUGGCGCGAUAGCGCCAACGUCCUCAACCUCCAAUGCAUCCCACCAUAUGAUGAUGCCUGAAGAGCCUUGGUUUUUUG [C8A C34A A37U C104U], the “polymerase ribozyme fitness (log ratio)” value rises from -2.77 to -1.95.

Going from GACCAAUAUGCCCUCAGAGCUUGAGAACAUCUUCGGAUGCAGAGGAGGCAGGCUUCGGUGACGCGAUAGCGCCAACGUCCUCAACCUCCAAUGCAUCCCACCACAUGAUGAUGCCUGAAGAGCCUUGGGUUUUUG [C8A C22U G61A U129G] to GACCAAUAUGCCCUCAGAGUUCGAGAACAUCUUCGGGUGCAGAGGAGGCAGGCUUCGGUGGCGCGAUAGCGCCAACGUCCUCAACCUCCAAUGCAUCCCACCACAUGAUGAUGCCUGAAGAGCCUUGGUUUUUUG [C8A C20U A37G], the “polymerase ribozyme fitness (log ratio)” value rises from -4.98 to -0.63.

Compared with GACCAAUAUGCCCUCAGAGCUCGAGAAGAUCUUCGGAUGCAGAGGAGGCAGGCUUCGGUGGCGCGAUAGCGCCAACGUCCUCAACCUCCAAUGCAUCCCACCACAUGAUGAUGCCUGAAGAGCCUUGGUUUUUUG [C8A C28G], GACCAAUAUGCCCUCAGAGCUCGAGAACAUCUUUGGAUGCAGAGGAGGCAGGUUUCGGUGGGGCGAUAGCGCCAACGUCCUCAACCUCCAAUGCAUCCCACCACAUGAAGAUGCCUGAAGAGCCUUGGUUUUUUG [C8A C34U C53U C62G U109A] is lower in “polymerase ribozyme fitness (log ratio)” value: -2.05 for the first, -6.27 for the second.

GACCAAUAUGCCCUCAGAGGUCGAGAACAUCUUCGGAUGCAGAGGAGGCAGGCUUCGGUGACGCGAUAGCGCCAACGUCCUCAACCUCCAAUGCAUCCCACCACAUGAUGAUGCCUGAAGAGCCUUGGUUUUUUG [C8A C20G G61A] and GACCAAUAUGCCCUCAGAGCUCGAGAACAUCUUUGGAUGCAGAGGAGGCAGGCUUCGGUGGCGCGAUAGCGCCAACGUCCUCAACCUCCAAUGCAUCCCACCACAUGAUGAUGCCUGAAGAGCCUUGGUUUUUUG [C8A C34U] are within 0.2 log units of each other in “polymerase ribozyme fitness (log ratio)” value: -4.4 for the first, -4.29 for the second.

Compared with GACCAAUAUGCCCUCAGAGUUCGAGAACAUCUUCGGAUGCAGAGGAGGCAGGCUUCGGUAGCGCGAUAGCGCCAACGUCCUCAACCUACAAUGCAUCCCACCACAUGAUGAUGCCUGAAGAGCCUUGGUUUUUUG [C8A C20U G60A C88A], GACCAAUAUGCCCUGAGAGCUCGAGAACAUCUUCGGAUGAAGAGGAGGCAGGCGUCGGUGGCGCGAUAGCGCCAACGUCCUCAACCUCCGAUGCAUCCCACCACAUGAUGAUGCCUGAAGAGCCUUGGUUUUUUG [C8A C15G C40A U54G A90G] is lower in “polymerase ribozyme fitness (log ratio)” value: -1.93 for the first, -2.34 for the second.

Compared with GACCAAUAUGCCCUCAGAGCUCGAGAACAUCUUAGGAUGCAUAGGAGGCAGGCUUCGGUGGCGCGAUAGCGCCAACGUCCUCAACCUCCAAUGCAUCCCACCACAUGAUGAUGCCUGAAGAGCCUUGGUUUUUUG [C8A C34A G42U], GACCAAUAUGCCCUCAGAGCUCGAGAAGAUCUUCGGAUGCAGAGGAGGCAGGCUUCGGUGGCGCGAUAGCGCCAACGUCCUCAACCUCCAAUGCAUCCCACAACAUGAAGAUGCCUGAAGAGCCUUGGUUUUUUG [C8A C28G C102A U109A] is lower in “polymerase ribozyme fitness (log ratio)” value: -4.61 for the first, -4.85 for the second.

First: GACCAAUAUGCCCUCAGAGUUCGAGAACAUCUUCGGAUGCAGAGGAGGCAGGCUUCGGUGGCGCGAUAGCGCCAACGUCCUCAACCUCCAAUGCAUCCCACCACGUGAUGACACCUGAAGAGCCUUGGUUUUUUG [C8A C20U A105G U112C G113A]
Second: GACCAAUAUGCCCUCAGAGCUCGAGAAGAUCUUCGGAUGCAGAGGAGGCAGGCUUCGGUGGCGUGAUAGCGCCAACGUCCUCAACCUCCAAUGCAUCCCACAACAUGAAGAUGCCUGAAGAGCCUUGGUUUUUUG [C8A C28G C64U C102A U109A]
The “polymerase ribozyme fitness (log ratio)” value of the first is higher: -0.707 for the first, -4.53 for the second.

Compared with GACCAAUAUGCCCUAAGAGCUCGAGAACAUCUUCGGAUGCCGAGGAGGAAGGCUUCGUUGGCUCGAUAGCGCCAACGUCCUCAACCUCCAAUGCAUCCCACCACAUGAUGAUGCCUGAAGAGCCUUGGUUAUUUG [C8A C15A A41C C49A G58U G63U U131A], GACCAAUAUGCCCUCAGAGCUGGAGAACAUCUUCGGAUGCAGAGGAGGCAGGCUUCGGUGGCGCGAUAGCGCCAACGUCCUCAACCUCCAAUGCAUCCCACCACAUGAUGAUGCCUGAAGUGCCUUGGUUUUUUG [C8A C22G A121U] is higher in “polymerase ribozyme fitness (log ratio)” value: -3.62 for the first, -1.6 for the second.

For GACCAAUAUGCCCUCAGAGCUCGAGAAGAUCUUCGGAUGCAGAGGAGGCAGGAUUCGGUGGCGCGAUAGCGCCAACGUCCUCAACCUCCAAUGCAUCCCACCACAGGAUGAUGCCUGAAGAGCCUUGGUUUUUUG [C8A C28G C53A U106G], the “polymerase ribozyme fitness (log ratio)” value was -3.51.
